According to patent US20200354457A1 (Hoffmann-La Roche, published 2020):
Where a chain is given by its changes, count along the chain named. “And” between values parts separate entries of the source, which are not always exact repeats. Equal entries are not always repeated.

T1: murine LAG3-Fc antigen (R&D Systems, 3328-L3-050) (murine, UniProt Q61790 24-442)
T1 construct: Bought reagent
T1 sequence (looked up): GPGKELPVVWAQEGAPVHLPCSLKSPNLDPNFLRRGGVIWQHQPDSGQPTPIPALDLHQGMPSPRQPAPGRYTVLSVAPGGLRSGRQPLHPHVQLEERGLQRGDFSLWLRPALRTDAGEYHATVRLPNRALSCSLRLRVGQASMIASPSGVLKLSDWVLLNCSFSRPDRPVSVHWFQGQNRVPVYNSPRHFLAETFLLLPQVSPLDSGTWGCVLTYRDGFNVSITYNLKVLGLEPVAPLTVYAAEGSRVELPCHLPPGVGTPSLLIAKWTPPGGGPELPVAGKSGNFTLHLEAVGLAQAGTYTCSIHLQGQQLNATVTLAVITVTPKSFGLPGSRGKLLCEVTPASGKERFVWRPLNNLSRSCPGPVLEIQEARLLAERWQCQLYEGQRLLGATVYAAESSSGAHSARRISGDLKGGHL

T2: human LAG3 on recombinant CHO cells (human, UniProt P18627 23-525)
T2 construct: whole, on cells; also called Lag3 cells; recombinant CHO cells expressing Lag3
T2 sequence (looked up): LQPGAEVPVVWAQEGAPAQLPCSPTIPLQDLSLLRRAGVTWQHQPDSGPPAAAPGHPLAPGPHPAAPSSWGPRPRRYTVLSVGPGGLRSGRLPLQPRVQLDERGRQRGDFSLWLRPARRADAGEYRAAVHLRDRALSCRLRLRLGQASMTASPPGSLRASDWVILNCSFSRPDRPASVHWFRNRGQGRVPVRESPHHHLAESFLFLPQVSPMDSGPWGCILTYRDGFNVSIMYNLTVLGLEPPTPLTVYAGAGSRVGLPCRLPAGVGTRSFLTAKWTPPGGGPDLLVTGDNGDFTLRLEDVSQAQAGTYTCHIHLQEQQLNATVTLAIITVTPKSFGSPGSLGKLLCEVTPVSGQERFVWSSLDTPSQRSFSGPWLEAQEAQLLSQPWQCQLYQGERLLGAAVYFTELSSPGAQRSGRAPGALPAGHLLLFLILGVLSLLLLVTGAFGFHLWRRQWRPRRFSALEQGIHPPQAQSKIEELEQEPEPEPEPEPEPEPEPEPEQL

T3: recombinant human LAG3 Fc Chimera Protein (R&D Systems, 2319-L3) (human, UniProt P18627 23-450)
T3 construct: Bought reagent
T3 sequence (looked up): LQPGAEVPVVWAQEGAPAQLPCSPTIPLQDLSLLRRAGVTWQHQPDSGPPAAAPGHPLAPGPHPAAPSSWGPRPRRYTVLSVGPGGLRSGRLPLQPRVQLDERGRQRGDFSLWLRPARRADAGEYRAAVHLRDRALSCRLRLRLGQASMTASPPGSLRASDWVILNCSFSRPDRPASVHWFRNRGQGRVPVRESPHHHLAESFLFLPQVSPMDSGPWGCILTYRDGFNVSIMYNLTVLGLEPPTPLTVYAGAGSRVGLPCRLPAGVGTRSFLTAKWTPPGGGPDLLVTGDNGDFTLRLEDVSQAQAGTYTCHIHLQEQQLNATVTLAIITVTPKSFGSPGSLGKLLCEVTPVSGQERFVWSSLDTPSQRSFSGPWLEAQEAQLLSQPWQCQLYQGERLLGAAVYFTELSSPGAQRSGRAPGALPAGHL

T4: biotinylated MCSP antigen (amino acids 1553 to 2184 of matured melanoma-associated chondroitin sulfate … (Homo sapiens (Human), UniProt Q6UVK1 1582-2213, limits assumed, biotin on the C-terminal avi-tag))
T4 construct: The entry may include the leader; also called recombinant MCSP
T4 sequence: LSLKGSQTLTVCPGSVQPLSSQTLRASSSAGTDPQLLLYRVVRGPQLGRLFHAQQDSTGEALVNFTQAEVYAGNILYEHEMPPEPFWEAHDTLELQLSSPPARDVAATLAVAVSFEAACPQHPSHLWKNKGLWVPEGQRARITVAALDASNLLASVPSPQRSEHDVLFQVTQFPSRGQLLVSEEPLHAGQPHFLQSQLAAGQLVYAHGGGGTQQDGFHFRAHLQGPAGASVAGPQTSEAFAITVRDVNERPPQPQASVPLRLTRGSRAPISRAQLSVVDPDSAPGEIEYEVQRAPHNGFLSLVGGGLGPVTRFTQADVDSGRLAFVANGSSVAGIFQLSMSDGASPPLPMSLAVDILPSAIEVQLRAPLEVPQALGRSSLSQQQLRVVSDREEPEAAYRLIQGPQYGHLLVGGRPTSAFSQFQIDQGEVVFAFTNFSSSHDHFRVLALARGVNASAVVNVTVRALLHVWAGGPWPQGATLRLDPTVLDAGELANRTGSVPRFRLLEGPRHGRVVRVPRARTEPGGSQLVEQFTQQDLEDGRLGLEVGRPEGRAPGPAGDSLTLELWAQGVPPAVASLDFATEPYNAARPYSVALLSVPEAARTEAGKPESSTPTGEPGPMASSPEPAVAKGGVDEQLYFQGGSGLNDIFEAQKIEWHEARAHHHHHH

B1: bivalent 21B11 aVH-Fc (Fc fusion)
chain: EVQLVESGGGLVQPGGSLRLSCAASGFNIKDTCIGWVRRAPGKGTELVAEICQDIGYTRYADSVKGRFTISADTSKNTAYLQMNSLRAEDTAVYYCAADESVDNFKYWGQGTTVTVSSGGGGSGGGGSDKTHTCPPCPAPEAAGGPSVFLFPPKPKDTLMISRTPEVTCVVVDVSHEDPEVKFNWYVDGVEVHNAKTKPREEQYNSTYRVVSVLTVLHQDWLNGKEYKCKVSNKALGAPIEKTISKAKGQPREPQVYTLPPSRDELTKNQVSLTCLVKGFYPSDIAVEWESNGQPENNYKTTPPVLDSDGSFFLYSKLTVDKSRWQQGNVFSCSVMHEALHNHYTQKSLSLSPGK
B2: bivalent P21A03 aVH-Fc (Fc fusion)
chain: B1 chain with Q53E, D99N, S101H, V102S, D103V, N104G, K106N
B3: bivalent P10C3 aVH-Fc (Fc fusion)
chain: B1 chain with Q53T, I55A, D99S, V102P, D103S, N104G, K106R
B4: bivalent 9B4 aVH-Fc (Fc fusion)
chain: B1 chain with D99V, S101V, V102A, D103E, N104Y, K106E
B5: bivalent 17D7 aVH-Fc (Fc fusion)
chain: B1 chain with Q53T, D99G, S101G, V102S, D103S, N104G, K106H
B6: bivalent 19G3 aVH-Fc (Fc fusion)
chain: B1 chain with D31Y, T32Q, Q53S, D54Y, I55D, D99E, D103E, N104G, K106I
B7: MCSP-specific disulfide-stabilized aVH clone 2 (VHH)
VHH: EVQLVESGGGLVQPGGSLRLSCAASSFNIKDTYIGWVRRAPGKGTELVASIDCIYGYTRYADSVKGRFTISCDTSKNTAYLQMNSLRAEDTAVYYCAAQGYRLHYWGQGTTVTVSS
notes: Autonomous human VH domain purified from E. coli by IMAC
B8: MCSP-specific disulfide-stabilized aVH clone 44 (VHH)
VHH: EVQLVESGGGLVQPGGSLRLSCAASGFNIKDGYIDWVRRAPGKGTELVASIECTNGRATRYADSVKGRFTISCDTSKNTAYLQMNSLRAEDTAVYYCAYAGIGYYFYYWGQGTTVTVSS
notes: Autonomous human VH domain purified from E. coli
B9: MCSP-specific disulfide-stabilized aVH clone 57.1 (VHH)
VHH: EVQLVESGGGLVQPGGSLRLSCAASGFNIKQNCIEWVRRAPGKGTELVANICHDIGSTRYADSVKGRFTISADTSKNTAYLQMNSLRAEDTAVYYCAAWEQKGFNYWGQGTTVTVSS
notes: as for B8

Each binder was assayed against T5, Lag3 on Lag3+ NFAT Jurkat effector cells (Promega #CS194801) (assay: cell-based or functional assay).

EC50 of restoration of the NFAT luciferase signal (NFAT Lag3 reporter assay: Lag3+ Jurkat, Raji cells, SED) [mg/L]	Binder
0.6	B1
3.31	B2
3.9	B3

Molecular target: T5, Lag3 on Lag3+ NFAT Jurkat effector …
Test: cell-based or functional assay
Remark: another data set of the same source

IC50 for near-complete reduction of luciferase activity (modified NFAT Lag3 reporter assay, Lag3+ Jurkat cells alone) [mg/L]	Binder
0.064	B1
0.078	B2

The binders below were run against T1, murine LAG3-Fc antigen (R&D Systems, …) (assay: ELISA using murine LAG3-Fc antigen).

binding result	Binder
no binding	B1
no binding	B2
no binding	B4
no binding	B3
no binding	B5
no binding	B6

The binders below were run against T2, human LAG3 on recombinant CHO cells (assay: cell ELISA on CHO cells expressing human LAG3;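 note: bivalent Fc-format binders titrated in threefold steps from 6 µg/mL, incubated with the cells 2 h at 4 °C, bound antibody detected by HRP-coupled anti-human IgG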).

EC50	OD max [OD]	Binder
0.0428 µg/mL and 0.6 nM	1.3	B1
0.0401 µg/mL and 0.5 nM	1.2	B2
0.0288 µg/mL and 0.4 nM	1.3	B4
0.0735 µg/mL and 1 nM	1.2	B3
0.0354 µg/mL and 0.5 nM	1.4	B5
0.0636 µg/mL and 0.8 nM	1.3	B6

The binders below were run against T3, recombinant human LAG3 Fc Chimera … (assay: ELISA, plate coated with human LAG3 Fc chimera).

EC50	OD max [OD]	Binder
0.0157 µg/mL and 0.2 nM	1.1	B1
0.0901 µg/mL and 1.2 nM	1.8	B2
0.0194 µg/mL and 0.3 nM	1.2	B4
0.123 µg/mL and 1.6 nM	0.8	B3
0.0145 µg/mL and 0.2 nM	1.2	B5
0.0342 µg/mL and 0.5 nM	1	B6

What follows are binders tested against T6, Lag3 on cynomolgus PBMC/T cells (cynomolgus) (assay: flow cytometry, non-activated cynomolgus PBMC, 10 µg/ml).
T6 construct: whole, on cells

Percentage of Lag3 positive cells [%]	Binder
20.8	B2
17	B6

What follows are binders tested against T6, Lag3 on cynomolgus PBMC/T cells (assay: flow cytometry, CD3/CD28-activated cynomolgus PBMC, 10 µg/ml).

Percentage of Lag3 positive cells [%]	Binder
52.2	B2
54.3	B6

Each binder was assayed against T7, cynomolgus LAG3 on transiently transfected HEK293F cells (cynomolgus) (assay: flow cytometry on HEK293F cells transfected with cyno LAG3, 10 µg/ml).
T7 construct: whole, on cells; also called cyno LAG3; cynomolgus Lag3-positive HEK cells

LAG3 positive cells (%)	Signal intensity (Geo Mean)	Binder
78.9	2750	B1
68.8	2060	B4
63.6	1980	B5
80.3	2560	B6

The binders below were run against T3, recombinant human LAG3 Fc Chimera … (assay: SPR (Biacore), aVH-Fc captured by anti-human Fc, human LAG-3 Fc chimera as analyte, 25 C).

koff [s⁻¹]	t1/2 [h]	Binder
1.8e-05	1.78	B1
1e-05	19.3	B2
0.00019	1.02	B4
8.9e-05	2.17	B3
0.00018	1.1	B5
0.00029	0.672	B6

Each binder was assayed against T8, soluble human Lag3-IgG1-Fc with biotinylated C-terminal Avi-tag (human, biotin on the C-terminal Avi-tag) (assay: A375 MHCII competition ELISA, biotinylated Lag3 250 ng/ml; competitor MHCII on A375 cells).
T8 construct: also called LAG3-Fc-avi; biotinylated LAG3-Fc antigen

IC50	Binder
0.113 µg/mL and 1.5 nM	B1
0.0581 µg/mL and 0.8 nM	B2
0.0762 µg/mL and 1 nM	B4
0.242 µg/mL and 3.2 nM	B3
0.104 µg/mL and 1.4 nM	B5
0.224 µg/mL and 3 nM	B6

What follows are binders tested against T4, biotinylated MCSP antigen (amino acids …) (assay: SPR (ProteOn XPR36), biotinylated MCSP captured on NLC chip, purified aVH as analyte, 25 C).

Kd [µM]	koff [s⁻¹]	kon [M⁻¹ s⁻¹]	Binder
0.008	0.00339	458000	B7
0.109	0.0163	150000	B8
0.048	0.0142	295000	B9

What follows are binders tested against T8, soluble human Lag3-IgG1-Fc with … (assay: A375 MHCII competition ELISA at 3 µg/ml, biotinylated Lag3 250 ng/ml; competitor MHCII on A375 cells).

% Inhibition [%]	Binder
96.7	B1
97.4	B2
95.5	B4
84.9	B3
91.7	B5
91.9	B6
